This note sets out measurements from US7473541B2, “Identification, cloning, expression, and purification of three novel human calcium-independent phospholipase A2 family members possessing triacylglycerol lipase and acylglycerol transacylase activities” (priority 2004, dated 2009).

Type in all cases: biochemical
Series [1] in a line: Assay for triolein lipase activity of recombinant enzymes. The conditions noted are these: for triolein lipase specific activity: peak fractions from Co2+ TALON affinity column. On the procedure:
Assay for Triolein Lipase Activity—Sample fractions were incubated in 85 mM potassium phosphate, pH 7.0 containing 2 mM EDTA and 2 mM DTT for 15 min at 37° C. in the presence of a suspension of 100 microM [9,10-^3H(N)]-triolein (100 microCi/micromol) in 25 microM egg yolk lecithin, and 100 microM sodium taurocholate. In some reactions, BEL was added at the indicated concentrations and incubated with enzyme at room temperature for 3 min prior to the addition of radiolabeled substrate. After extraction of radiolabeled reaction products and remaining substrate into butanol, samples were spotted on TLC plates, overlaid with oleic acid standard, dried, and developed in chloroformlmethanol/NH4OH (65:25:5). The region of the plate corresponding to the oleic acid standard (visualized by iodine staining) was scraped into scintillation vials and quantified by liquid scintillation spectrometry.

Series [2] in a line: Assay for calcium-independent phospholipase A2 activity of recombinant enzymes. As to conditions: for calcium-independent PLA2 activity: Sf9 cytosol and membrane fractions, 1-palmitoyl-2-[1-14C]-oleoyl-sn-glycerol-3-phosphocholine, relative to control; for PLA2 hydrolysis rate: affinity purified, 30 min. From the text:
[…] Reactions were terminated by addition of 100 microliters of butanol and extraction of the radiolabeled product and remaining substrate into the butanol layer by vigorous vortexing. Samples were spotted on LK6 Silica Gel 60 Å TLC plates, overlaid with oleic acid standard, dried, and developed in petroleum etherlethyl etherlacetic acid (70:30:1). The region of the plate corresponding to the oleic acid standard (visualized by iodine staining) was scraped into scintillation vials and quantified by liquid scintillation spectrometry.

The nature of series [3]: Assay for acylglycerol transacylase activity. The conditions noted are these: affinity purified. On the procedure:
Assay for Acylglycerol Transacylase Activity—Highly purified CO^2+-TALON affinity chromatographic fractions containing iPLA2epsilon(His)6 (6xHis tag disclosed as SEQ ID NO: 29), iPLA2zeta(His)6 (6xHis tag disclosed as SEQ ID NO: 29) or iPLA2eta(His)6 (6xHis tag disclosed as SEQ ID NO: 29) (40 microliters) were incubated in 85 mM potassium phosphate, pH 7.0 (200 microliters final volume) for 15 mm at 37° C. in the presence of 10 microM [1-^14-C]-mono-olein (acyl donor), 25 microM acyl acceptor (mono-olein or diolein), 25 microM egg yolk lecithin, and 25 microM sodium taurocholate. After extraction of radiolabeled reaction products and remaining substrate into butanol, samples were spotted on TLC plates, overlaid with trileiddiolein standards, dried, and developed in petroleum etherlethyl etherlacetic acid (75:25:1). The regions of the plate corresponding to either the diolein, triolein, and fatty acid standards (visualized by iodine staining) were scraped into scintillation vials and quantified by liquid scintillation spectrometry.

The mark [4] stands for this setting: 1-palmitoyl-2-[1-14C]-arachidonyl-sn-glycerol-3-phosphocholine.
Where [5] appears, read: 1-palmitoyl-2-[1-14C]-linoleoyl-sn-glycerol-3-phosphocholine.

“Also recorded” adds a separate entry of the source.

B1: iPLA2epsilon(His)6: recombinant human calcium-independent phospholipase A2 epsilon (adiponutrin, SEQ ID NO: 1) expressed in Sf9 cells (protein, listed as Homo sapiens)
chain: MYDAERGWSLSFAGCGFLGFYHVGATRCLSEHAPHLLRDARMLFGASAGALHCVGVLSGIPLEQTLQVLSDLVRKARSRNIGIFHPSFNLSKFLRQGLCKCLPANVHQLISGKIGISLTRVSDGENVLVSDFRSKDEVVDALVCSCFIPFYSGLIPPSFRGVRYVDGGVSDNVPFIDAKTTITVSPFYGEYDICPKVKSTNFLHVDITKLSLRLCTGNLYLLSRAFVPPDLKVLGEICLRGYLDAFRFLEEKGICNRPQPGLKSSSEGMDPEVAMPSWANMSLDSSPESAALAVRLEGDELLDHLRLSILPWDESILDTLSPRLATALSEEMKDKGGYMSKICNLLPIRIMSYVMLPCTLPVESAIAIVQRLVTWLPDMPDDVLWLQWVTSQVFTRVLMCLLPASRSQMPVSSQQASPCTPEQDWPCWTPCSPEGCPAETKAEATPRSILRSSLNFFLGNKVPAGAEGLSTFPSFSLEKSLHHHHHH
modifications: C-terminal His6 tag
On to B1, for which the “triolein lipase specific activity” value in series [1] is recorded as 8 nmol oleic acid·min^−1·mg^−1 protein. Further, the “calcium-independent PLA2 activity” value in series [2] is reported as 20-50 pmol·min^−1·mg protein^−1. Moreover, the values for the PLA2 hydrolysis rate in series [2] (setting [4]) and in series [2] (setting [5]) were 100±4 pmol arachidonic acid·min^31 1·mg protein^−1 and 57±3 pmol linoleic acid·min^−1·mg protein^−1, respectively.

B2: iPLA2zeta(His)6: recombinant human calcium-independent phospholipase A2 zeta (TTS-2.2, SEQ ID NO: 2) expressed in Sf9 cells (protein, listed as Homo sapiens)
chain: MFPREKTWNISFAGCGFLGVYYVGVASCLREHAPFLVANATHIYGASAGALTATALVTGVCLGEAGAKFIEVSKEARKRFLGPLHPSFNLVKIIRSFLLKVLPADSHEHASGRLGISLTRVSDGENVIISHFNSKDELIQANVCSGFIPVYCGLIPPSLQGVRYVDGGISDNLPLYELKNTITVSPFSGESDICPQDSSTNIHELRVTNTSIQFNLRNLYRLSKALFPPEPLVLREMCKQGYRDGLRFLQRNGLLNRPNPLLALPPARPHGPEDKDQAVESAQAEDYSQLPGEDHILEHLPARLNEALLEACVEPTDLLTTLSNMLPVRLATAMMVPYTLPLESALSFTIRLLEWLPDVPEDIRWMKEQTGSICQYLVMRAKRKLGRHLPSRLPEQVELRRVQSLPSVPLSCAAYREALPGWMRNNLSLGDALAKWEECQRQLLLGLFCTNVAFPPEALRMRAPADPAPAPADPASPQHQPAGPAPLLSTPAPEARPVIGALGLHHHHHH
modifications: C-terminal His6 tag
Consider B2, for which the “triolein lipase specific activity” value in series [1] is recorded as 9 nmol oleic acid·min^−1·mg^−1 protein. Moreover, the “calcium-independent PLA2 activity” value in series [2] is “did not yield detectable amounts; also recorded: did not display measurable iPLA2 activity”. For the same molecule, the PLA2 hydrolysis rate was 119±6 pmol arachidonic acid·min^31 1·mg protein^−1 in series [2] (setting [4]) and 57±19 pmol linoleic acid·min^−1·mg protein^−1 in series [2] (setting [5]).

B3: iPLA2eta(His)6: recombinant human calcium-independent phospholipase A2 eta (GS2, SEQ ID NO: 3) expressed in Sf9 cells (protein, listed as Homo sapiens)
chain: MKHINLSFAACGFLGIYHLGAASALCRHGKKLVKDVKAFAGASAGFTSLVASVLLTAPEKIEECNQFTYKFAEEIRRQSFGAVTPGYDFMARLRSGMESILPPSAHFTELAQNRLHVSITNAKTRENHLVSTFSSREDLIKVLLASSFVPIYAGLKLVEYKGQKWVDFTGGLTNALPILPVGRTVTISPFSGRLDISPQDKGQLDLYVNIAKQDIMLSLANLVRLNQAFTLFPPSKRKMESLYQCGFDDTVKFLLKENWFEHHHHHH
modifications: C-terminal His6 tag
For B3, the “transacylation specific activity relative to iPLA2epsilon(His)6 and iPLA2zeta(His)6” value in series [3] is recorded as “approximately 10 fold”. Further, the “triolein lipase specific activity relative to iPLA2epsilon(His)6 and iPLA2zeta(His)6” value in series [1] (Sf9 fractions, normalised to immunoreactive protein) is reported as 5-10 fold. The “triolein lipase specific activity” value in series [1] is recorded as 52 nmol oleic acid·min^−1·mg^−1 protein. Also, in series [2], the “calcium-independent PLA2 activity” value was “did not yield detectable amounts; also recorded: did not display measurable iPLA2 activity”. The values for the PLA2 hydrolysis rate in series [2] (setting [4]) and in series [2] (setting [5]) were 134±42 pmol arachidonic acid·min^31 1·mg protein^−1 and 77±23 pmol linoleic acid·min^−1·mg protein^−1, respectively.
